Article PMC8278493, “Structure of the TELO2-TTI1-TTI2 complex and its function in TOR recruitment to the R2TP chaperone” (Cell Reports, 2021)

B3: S. cerevisiae Rvb1p-Rvb2p complex (complex)
chain 1: MVAISEVKENPGVNSSNSGAVTRTAAHTHIKGLGLDESGVAKRVEGGFVGQIEAREACGVIVDLIKAKKMSGRAILLAGGPSTGKTALALAISQELGPKVPFCPLVGSELYSVEVKKTETLMENFRRAIGLRIKETKEVYEGEVTELTPEDAENPLGGYGKTISHVIVGLKSAKGTKTLRLDPTIYESIQREKVSIGDVIYIEANTGAVKRVGRSDAYATEFDLETEEYVPLPKGEVHKKKEIVQDVTLHDLDVANARPQGGQDVISMMGQLLKPKKTEITEKLRQEVNKVVAKYIDQGVAELIPGVLFIDEVNMLDIEIFTYLNKALESNIAPVVVLASNRGMTTVRGTEDVISPHGVPPDLIDRLLIVRTLPYDKDEIRTIIERRATVERLQVESSALDLLATMGTETSLRYALQLLAPCGILAQTSNRKEIVVNDVNEAKLLFLDAKRSTKILETSANYL
chain 2: MSIQTSDPNETSDLKSLSLIAAHSHITGLGLDENLQPRPTSEGMVGQLQARRAAGVILKMVQNGTIAGRAVLVAGPPSTGKTALAMGVSQSLGKDVPFTAIAGSEIFSLELSKTEALTQAFRKSIGIKIKEETELIEGEVVEIQIDRSITGGHKQGKLTIKTTDMETIYELGNKMIDGLTKEKVLAGDVISIDKASGKITKLGRSFARSRDYDAMGADTRFVQCPEGELQKRKTVVHTVSLHEIDVINSRTQGFLALFTGDTGEIRSEVRDQINTKVAEWKEEGKAEIVPGVLFIDEVHMLDIECFSFINRALEDEFAPIVMMATNRGVSKTRGTNYKSPHGLPLDLLDRSIIITTKSYNEQEIKTILSIRAQEEEVELSSDALDLLTKTGVETSLRYSSNLISVAQQIAMKRKNNTVEVEDVKRAYLLFLDSARSVKYVQENESQYIDDQGNVQISIAKSADPDAMDTTE
notes: Rvb1p, Saccharomyces cerevisiae; Rvb2p, Saccharomyces cerevisiae; also called yR2; R2; source: expressed and purified as previously described (Rivera-Calzada et al., 2017); copies: 3 + 3

Legend:
Conditions in all cases: both partners purified
[1] = molecular target: T1, human TTI1, full length, untagged (human, UniProt O43156 1-1089); assay: cryo-EM structure; human R2 saturated with an excess of TTT; symmetry expansion and multi-body refinement; ADP in all six sites
T1 construct: TTI1, human, 1089 residues; In PDB 7OLE TTI1 is modelled as poly-alanine helices only; also called full-length untagged TTI1; source: Sf9, co-expressed with GST-TTI2 constructs (in lysate); co-expressed with TTI2 and TELO2 and purified within TTT
T1 sequence (O43156 whole entry): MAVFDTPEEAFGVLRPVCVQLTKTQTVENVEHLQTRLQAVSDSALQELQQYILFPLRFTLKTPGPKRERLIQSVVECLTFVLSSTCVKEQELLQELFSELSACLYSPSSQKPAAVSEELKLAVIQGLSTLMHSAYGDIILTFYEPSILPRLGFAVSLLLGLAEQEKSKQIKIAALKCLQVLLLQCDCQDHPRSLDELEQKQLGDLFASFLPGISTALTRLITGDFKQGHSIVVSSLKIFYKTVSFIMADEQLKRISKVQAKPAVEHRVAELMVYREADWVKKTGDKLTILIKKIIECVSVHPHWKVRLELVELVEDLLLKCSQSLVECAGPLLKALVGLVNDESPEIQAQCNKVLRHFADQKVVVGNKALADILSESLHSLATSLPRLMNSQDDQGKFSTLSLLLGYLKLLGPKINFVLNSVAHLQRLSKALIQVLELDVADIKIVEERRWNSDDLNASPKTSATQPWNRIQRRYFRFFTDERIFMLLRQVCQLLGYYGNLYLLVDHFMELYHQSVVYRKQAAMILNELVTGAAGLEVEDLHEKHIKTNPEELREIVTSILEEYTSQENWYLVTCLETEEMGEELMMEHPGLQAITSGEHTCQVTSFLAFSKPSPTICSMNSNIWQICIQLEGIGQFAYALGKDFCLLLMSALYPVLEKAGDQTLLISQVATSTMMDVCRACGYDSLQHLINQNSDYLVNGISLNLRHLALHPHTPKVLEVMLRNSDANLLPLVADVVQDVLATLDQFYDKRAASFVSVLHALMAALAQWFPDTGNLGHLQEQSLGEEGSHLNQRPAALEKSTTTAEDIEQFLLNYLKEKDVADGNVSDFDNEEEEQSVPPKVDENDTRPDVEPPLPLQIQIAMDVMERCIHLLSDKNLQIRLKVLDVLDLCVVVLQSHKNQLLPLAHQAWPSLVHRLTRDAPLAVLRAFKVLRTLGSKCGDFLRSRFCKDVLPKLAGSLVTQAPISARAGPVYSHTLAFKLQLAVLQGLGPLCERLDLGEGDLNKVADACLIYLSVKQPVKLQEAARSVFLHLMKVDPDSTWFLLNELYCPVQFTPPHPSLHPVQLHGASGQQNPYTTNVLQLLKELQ

[2] = molecular target: B3; assay: pull-down; strep beads hold the tandem strep-tag on Tah1p in yeast TP or R2TP; 20 mM HEPES pH 7.85, 140 mM NaCl, 0.5 mM TCEP, 0.03% CHAPS; 45 min at 4°C; Coomassie-stained SDS-PAGE
[3] = molecular target: T2, S. cerevisiae Tel2p-Tti1p-Tti2p complex (S. cerevisiae, UniProt P53038 1-688; P36097 1-1038; P47168 1-421); assay: as above
T2 construct: Tel2p, Saccharomyces cerevisiae; Tti1p, Saccharomyces cerevisiae; Tti2p, Saccharomyces cerevisiae; Purified from insect cells to ensure post-translational modifications on Tel2p; The methods say in general that the GST-tag was cleaved; also called yTTT; yeast TTT; source: Sf9, co-infected with Tti1p-Tti2p and Tel2p viruses, purified; copies: + +
T2 sequence (P53038 whole entry, chain 1 of 3): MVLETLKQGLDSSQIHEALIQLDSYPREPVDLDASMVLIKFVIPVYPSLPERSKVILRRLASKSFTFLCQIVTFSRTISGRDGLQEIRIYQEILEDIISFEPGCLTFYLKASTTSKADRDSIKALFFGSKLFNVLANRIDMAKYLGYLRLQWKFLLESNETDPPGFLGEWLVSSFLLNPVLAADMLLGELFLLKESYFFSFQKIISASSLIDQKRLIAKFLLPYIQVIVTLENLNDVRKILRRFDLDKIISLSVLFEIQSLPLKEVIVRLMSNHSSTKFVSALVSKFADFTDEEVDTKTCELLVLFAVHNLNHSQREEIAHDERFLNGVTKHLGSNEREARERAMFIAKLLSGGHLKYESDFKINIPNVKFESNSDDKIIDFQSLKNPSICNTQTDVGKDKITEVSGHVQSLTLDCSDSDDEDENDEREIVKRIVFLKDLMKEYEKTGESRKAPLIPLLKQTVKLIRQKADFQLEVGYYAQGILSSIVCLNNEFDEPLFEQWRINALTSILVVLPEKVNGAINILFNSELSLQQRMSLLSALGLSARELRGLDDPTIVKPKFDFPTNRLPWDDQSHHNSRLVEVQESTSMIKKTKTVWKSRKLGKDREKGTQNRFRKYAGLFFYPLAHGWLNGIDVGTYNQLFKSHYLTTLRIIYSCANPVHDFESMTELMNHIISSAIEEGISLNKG
T2 sequence (P36097 whole entry, chain 2 of 3): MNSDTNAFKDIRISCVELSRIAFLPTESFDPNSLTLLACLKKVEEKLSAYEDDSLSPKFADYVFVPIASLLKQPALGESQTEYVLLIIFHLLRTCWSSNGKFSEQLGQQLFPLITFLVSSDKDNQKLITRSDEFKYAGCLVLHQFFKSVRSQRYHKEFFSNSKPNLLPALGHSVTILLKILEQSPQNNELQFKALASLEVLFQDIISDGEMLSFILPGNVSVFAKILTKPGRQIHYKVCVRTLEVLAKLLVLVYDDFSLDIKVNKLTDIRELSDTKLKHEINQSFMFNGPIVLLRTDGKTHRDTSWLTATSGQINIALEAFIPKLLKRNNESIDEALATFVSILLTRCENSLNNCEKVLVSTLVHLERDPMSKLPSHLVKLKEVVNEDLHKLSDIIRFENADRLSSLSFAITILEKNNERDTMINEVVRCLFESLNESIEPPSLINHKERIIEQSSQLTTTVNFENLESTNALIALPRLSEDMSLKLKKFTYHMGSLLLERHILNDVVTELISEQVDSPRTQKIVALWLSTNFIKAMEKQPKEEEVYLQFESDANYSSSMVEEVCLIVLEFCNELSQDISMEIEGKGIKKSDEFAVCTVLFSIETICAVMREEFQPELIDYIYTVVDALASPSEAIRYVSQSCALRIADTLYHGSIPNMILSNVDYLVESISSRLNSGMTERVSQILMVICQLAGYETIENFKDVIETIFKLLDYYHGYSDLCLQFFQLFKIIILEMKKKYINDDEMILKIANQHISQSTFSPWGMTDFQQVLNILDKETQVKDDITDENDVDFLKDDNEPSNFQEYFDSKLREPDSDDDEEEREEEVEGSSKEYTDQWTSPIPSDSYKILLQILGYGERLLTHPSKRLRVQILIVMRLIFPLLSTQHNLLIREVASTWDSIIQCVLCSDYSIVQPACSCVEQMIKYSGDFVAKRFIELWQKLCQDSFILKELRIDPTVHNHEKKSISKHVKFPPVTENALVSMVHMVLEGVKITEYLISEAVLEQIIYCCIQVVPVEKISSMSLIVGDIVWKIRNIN
T2 sequence (P47168 whole entry, chain 3 of 3): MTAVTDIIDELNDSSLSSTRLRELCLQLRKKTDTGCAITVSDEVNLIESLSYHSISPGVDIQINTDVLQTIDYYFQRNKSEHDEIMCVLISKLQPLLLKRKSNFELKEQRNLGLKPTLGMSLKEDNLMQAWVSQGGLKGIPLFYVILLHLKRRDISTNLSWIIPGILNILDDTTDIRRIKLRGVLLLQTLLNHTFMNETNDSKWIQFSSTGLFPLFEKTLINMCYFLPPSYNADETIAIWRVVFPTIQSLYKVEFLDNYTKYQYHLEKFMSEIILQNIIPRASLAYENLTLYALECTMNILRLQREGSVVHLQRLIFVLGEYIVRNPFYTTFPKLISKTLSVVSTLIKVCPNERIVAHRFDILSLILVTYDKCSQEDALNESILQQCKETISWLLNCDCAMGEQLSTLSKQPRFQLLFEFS

[4] = molecular target: T3, S. cerevisiae TTT complex in which Tti1p carries a C-terminal FLAG-tag (S. cerevisiae, UniProt P53038 1-688; P36097 1-1038; P47168 1-421); assay: co-IP; anti-FLAG beads hold yeast TTT by FLAG-tagged Tti1p; purified KmTOR-KmLst8, with or without yeast R2; Coomassie-stained SDS-PAGE
T3 construct: Tel2p, Saccharomyces cerevisiae; Tti1p, Saccharomyces cerevisiae; Tti2p, Saccharomyces cerevisiae; The cloning of the FLAG-tagged Tti1p is not described in the methods; also called FLAG-tagged TTT; FLAG-tagged Tti1p; source: Sf9, purified; not shown: FLAG, C-terminal, kept; copies: + +
T3 sequence (P53038 whole entry, chain 1 of 3): as the sequence (P53038 whole entry, chain 1 of 3) above
T3 sequence (P36097 whole entry, chain 2 of 3): as the sequence (P36097 whole entry, chain 2 of 3) above
T3 sequence (P47168 whole entry, chain 3 of 3): as the sequence (P47168 whole entry, chain 3 of 3) above

[5] = molecular target: T4, human TTI1-TTI2 subcomplex (human, UniProt O43156 1-1089; Q6NXR4 1-508); assay: pull-down; GST beads hold the GST-tag on TELO2 (5 μM); 2 μM RUVBL1/2, RUVBL1/2ΔDII or isolated DII domains; 20 mM HEPES pH 7.85, 140 mM NaCl, 0.001% Tween 20; 45 min at 4°C; Coomassie-stained SDS-PAGE
T4 construct: TTI1, human, 1089 residues; TTI2, human, 508 residues; Cloned as TTI1 and GST-TTI2; the methods name both a cleavage of the GST-tag and GST-TTI2-TTI1 as a sample of the pull-downs; also called T2; source: Sf9, co-expressed, purified
T4 sequence (O43156 whole entry, the tested form may be a part, one chain of several): as the sequence (O43156 whole entry) above

B1: human TTI2 (as in the purified TTT complex) (natural protein, UniProt Q6NXR4 1-508, looked up)
chain: MELDSALEAPSQEDSNLSEELSHSAFGQAFSKILHCLARPEARRGNVKDAVLKDLGDLIEATEFDRLFEGTGARLRGMPETLGQVAKALEKYAAPSKEEEGGGDGHSEAAEKAAQVGLLFLKLLGKVETAKNSLVGPAWQTGLHHLAGPVYIFAITHSLEQPWTTPRSREVAREVLTSLLQVTECGSVAGFLHGENEDEKGRLSVILGLLKPDLYKESWKNNPAIKHVFSWTLQQVTRPWLSQHLERVLPASLVISDDYQTENKILGVHCLHHIVLNVPAADLLQYNRAQVLYHAISNHLYTPEHHLIQAVLLCLLDLFPILEKTLHWKGDGARPTTHCDEVLRLILTHMEPEHRLLLRRTYARNLPAFVNRLGILTVRHLKRLERVIIGYLEVYDGPEEEARLKILETLKLLMQHTWPRVSCRLVVLLKALLKLICDVARDPNLTPESVKSALLQEATDCLILLDRCSQGRVKGLLAKIPQSCEDRKVVNYIRKVQQVSEGAPYNGT
notes: TTI2, human, 508 residues; In PDB 7OLE TTI2 is modelled as poly-alanine helices only; source: Sf9, purified within TTT
binding result [1]: binds

B2: S. cerevisiae Tah1p-Pih1p complex with a tandem strep-tag on the N terminus of Tah1p (complex)
chain 1: MSQFEKQKEQGNSLFKQGLYREAVHCYDQLITAQPQNPVGYSNKAMALIKLGEYTQAIQMCQQGLRYTSTAEHVAIRSKLQYRLELAQGAVGSVQIPVVEVDELPEGYDRS
chain 2: MADFLLRPIKQRHRNEDKYVSVDAADGSVSKIEPIADFVIKTKLLSANGPEKLQDGRKVFINVCHSPLVPKPEVDFNARIVFPLIIQNEWEIPIITSCYRMDHDKKGQECYVWDCCINSDCSRWICDDIQLREILVEWCLESCEIRDSVVLCRDRIAFPKMKKKGAELPALEVLNDELHQDYKAKMHKIIEEEAGDPMSILRGRNDDGDDNNDPDDGTLPPLFPIENKISGAKIEEIDKNEIAHRNLKQAPAPAPAPHEQQEDVPEYEVKMKRFKGAAYKLRILIENKAPNSKPDRFSPSYNFAENILYINGKLSIPLPRDIVVNAADIKIFHIRKERTLYIYI
notes: Tah1p, Saccharomyces cerevisiae; Pih1p, Saccharomyces cerevisiae; also called yTP; TP; source: expressed and purified as previously described (Rivera-Calzada et al., 2017); not shown: tandem Strep, N-terminal, kept
binding result [2]: binds
binding result [3]: binds

B3
binding result [4]: binds

B4: human TELO2 (as in the purified TTT complex) (natural protein, UniProt Q9Y4R8 1-837, looked up)
chain: MEPAPSEVRLAVREAIHALSSSEDGGHIFCTLESLKRYLGEMEPPALPREKEEFASAHFSPVLRCLASRLSPAWLELLPHGRLEELWASFFLEGPADQAFLVLMETIEGAAGPSFRLMKMARLLARFLREGRLAVLMEAQCRQQTQPGFILLRETLLGKVVALPDHLGNRLQQENLAEFFPQNYFRLLGEEVVRVLQAVVDSLQGGLDSSVSFVSQVLGKACVHGRQQEILGVLVPRLAALTQGSYLHQRVCWRLVEQVPDRAMEAVLTGLVEAALGPEVLSRLLGNLVVKNKKAQFVMTQKLLFLQSRLTTPMLQSLLGHLAMDSQRRPLLLQVLKELLETWGSSSAIRHTPLPQQRHVSKAVLICLAQLGEPELRDSRDELLASMMAGVKCRLDSSLPPVRRLGMIVAEVVSARIHPEGPPLKFQYEEDELSLELLALASPQPAGDGASEAGTSLVPATAEPPAETPAEIVDGGVPQAQLAGSDSDLDSDDEFVPYDMSGDRELKSSKAPAYVRDCVEALTTSEDIERWEAALRALEGLVYRSPTATREVSVELAKVLLHLEEKTCVVGFAGLRQRALVAVTVTDPAPVADYLTSQFYALNYSLRQRMDILDVLTLAAQELSRPGCLGRTPQPGSPSPNTPCLPEAAVSQPGSAVASDWRVVVEERIRSKTQRLSKGGPRQGPAGSPSRFNSVAGHFFFPLLQRFDRPLVTFDLLGEDQLVLGRLAHTLGALMCLAVNTTVAVAMGKALLEFVWALRFHIDAYVRQGLLSAVSSVLLSLPAARLLEDLMDELLEARSWLADVAEKDPDEDCRTLALRALLLLQRLKNRLLPPASP
notes: TELO2, human; Only the N-terminal domain (TELO2-N) is seen in the map; source: Sf9, purified within TTT; not shown: GST, N-terminal, cleaved
binding result [1]: binds

B5: human GST-TELO2 (natural protein, UniProt Q9Y4R8 1-837, looked up)
chain: MEPAPSEVRLAVREAIHALSSSEDGGHIFCTLESLKRYLGEMEPPALPREKEEFASAHFSPVLRCLASRLSPAWLELLPHGRLEELWASFFLEGPADQAFLVLMETIEGAAGPSFRLMKMARLLARFLREGRLAVLMEAQCRQQTQPGFILLRETLLGKVVALPDHLGNRLQQENLAEFFPQNYFRLLGEEVVRVLQAVVDSLQGGLDSSVSFVSQVLGKACVHGRQQEILGVLVPRLAALTQGSYLHQRVCWRLVEQVPDRAMEAVLTGLVEAALGPEVLSRLLGNLVVKNKKAQFVMTQKLLFLQSRLTTPMLQSLLGHLAMDSQRRPLLLQVLKELLETWGSSSAIRHTPLPQQRHVSKAVLICLAQLGEPELRDSRDELLASMMAGVKCRLDSSLPPVRRLGMIVAEVVSARIHPEGPPLKFQYEEDELSLELLALASPQPAGDGASEAGTSLVPATAEPPAETPAEIVDGGVPQAQLAGSDSDLDSDDEFVPYDMSGDRELKSSKAPAYVRDCVEALTTSEDIERWEAALRALEGLVYRSPTATREVSVELAKVLLHLEEKTCVVGFAGLRQRALVAVTVTDPAPVADYLTSQFYALNYSLRQRMDILDVLTLAAQELSRPGCLGRTPQPGSPSPNTPCLPEAAVSQPGSAVASDWRVVVEERIRSKTQRLSKGGPRQGPAGSPSRFNSVAGHFFFPLLQRFDRPLVTFDLLGEDQLVLGRLAHTLGALMCLAVNTTVAVAMGKALLEFVWALRFHIDAYVRQGLLSAVSSVLLSLPAARLLEDLMDELLEARSWLADVAEKDPDEDCRTLALRALLLLQRLKNRLLPPASP
notes: TELO2, human; The tagged subunit of m4, as the bait with which TTI1-TTI2 is found; also called GST-TEL2; not shown: GST, N-terminal, kept
binding result [5]: binds
